Laboratory results as given in article PMC2887722 (Molecular cell, 2010).
Positions count from the first letter of the chain named.

T1: His-tagged Uch37 (UniProt Q9Y5K5 1-329)
T1 sequence (looked up): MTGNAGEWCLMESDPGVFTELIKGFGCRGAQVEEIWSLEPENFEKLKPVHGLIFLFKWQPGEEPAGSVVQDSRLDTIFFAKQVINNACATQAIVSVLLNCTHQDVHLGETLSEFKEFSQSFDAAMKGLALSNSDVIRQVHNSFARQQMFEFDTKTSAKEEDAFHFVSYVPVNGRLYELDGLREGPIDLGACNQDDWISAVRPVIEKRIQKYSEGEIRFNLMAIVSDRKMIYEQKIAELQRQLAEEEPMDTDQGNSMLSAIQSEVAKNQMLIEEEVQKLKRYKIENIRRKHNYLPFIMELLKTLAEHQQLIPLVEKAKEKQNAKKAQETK

T2: hRpn2 (797-953) (human, UniProt Q99460 797-953)
T2 sequence (looked up): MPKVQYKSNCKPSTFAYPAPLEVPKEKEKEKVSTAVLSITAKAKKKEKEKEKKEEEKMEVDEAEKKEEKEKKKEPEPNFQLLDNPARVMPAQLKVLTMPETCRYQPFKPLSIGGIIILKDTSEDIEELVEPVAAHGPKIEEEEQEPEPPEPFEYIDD

B1: GST-tagged hRpn2 (797-953) (domain or fragment, human, UniProt Q99460 797-953, looked up)
chain: T2 sequence (looked up)
B2: hRpn13 (253-407) (domain or fragment, human, UniProt Q16186 253-407, looked up)
chain: STAASPTQPIQLSDLQSILATMNVPAGPAGGQQVDLASVLTPEIMAPILANADVQERLLPYLPSGESLPQTADEIQNTLTSPQFQQALGMFSAALASGQLGPLMCQFGLPAEAVEAANKGDVEAFAKAMQNNAKPEQKEGDTKDKKDEEEDMSLD
B3: GST-tagged hRpn13 (253-407) wild-type (domain or fragment, human, UniProt Q16186 253-407, looked up)
chain: B2 chain
B4: GST-tagged hRpn13 (253-407) with alanine substitutions of Val286, Asp287, Glu295 and Ile296 (domain or fragment, human, UniProt Q16186 253-407, looked up)
chain: B2 chain with V34A, D35A, E43A, I44A
B5: full length human Rpn13 (hRpn13) (natural protein, UniProt Q16186 1-407, looked up)
chain: MTTSGALFPSLVPGSRGASNKYLVEFRAGKMSLKGTTVTPDKRKGLVYIQQTDDSLIHFCWKDRTSGNVEDDLIIFPDDCEFKRVPQCPSGRVYVLKFKAGSKRLFFWMQEPKTDQDEEHCRKVNEYLNNPPMPGALGASGSSGHELSALGGEGGLQSLLGNMSHSQLMQLIGPAGLGGLGGLGALTGPGLASLLGSSGPPGSSSSSSSRSQSAAVTPSSTTSSTRATPAPSAPAAASATSPSPAPSSGNGASTAASPTQPIQLSDLQSILATMNVPAGPAGGQQVDLASVLTPEIMAPILANADVQERLLPYLPSGESLPQTADEIQNTLTSPQFQQALGMFSAALASGQLGPLMCQFGLPAEAVEAANKGDVEAFAKAMQNNAKPEQKEGDTKDKKDEEEDMSLD
B6: hRpn13 (1-150) (domain or fragment, human, UniProt Q16186 1-150, looked up)
chain: MTTSGALFPSLVPGSRGASNKYLVEFRAGKMSLKGTTVTPDKRKGLVYIQQTDDSLIHFCWKDRTSGNVEDDLIIFPDDCEFKRVPQCPSGRVYVLKFKAGSKRLFFWMQEPKTDQDEEHCRKVNEYLNNPPMPGALGASGSSGHELSAL

What was measured:
[1] = molecular target: B5; assay: pull-down
His-tagged Uch37 [2] = molecular target: T1, His-tagged Uch37; assay: NMR intermolecular NOEs
His-tagged Uch37 [3] = molecular target: T1, His-tagged Uch37; assay: pull-down
ubiquitin = ubiquitin (UniProt P0CG48 1-76); assay: other fluorescence titration
hRpn2 (797-953) = molecular target: T2, hRpn2 (797-953); assay: NMR titration

Binder: B1
binding result [1]: binds

Binder: B2
binding result (His-tagged Uch37 [2]): binds

Binder: B3
binding result (His-tagged Uch37 [3]): binds

Binder: B4
binding result (His-tagged Uch37 [3]): binds

Binder: B5
Kd (ubiquitin): 8 ± 0.5 µM

Binder: B6
binding result (hRpn2 (797-953)): binds
